Earlier results as cited in PMC11277083, “A Natural Bioactive Peptide from Pinctada fucata Pearls Can Be Used as a Potential Inhibitor of the Interaction between SARS-CoV-2 and ACE2 against COVID-19” (International Journal of Molecular Sciences, 2024).

Tested on: SARS-CoV-2 pseudoparticle
Settings: pretreatment; blocking the interaction between ACE2 and the RBD

B1: human defensin 5 (HD5): human defensin 5 (peptide, UniProt Q01523 20-94, looked up)
Defensin alpha 5: ESLQERADEATTQKQSGEDNQDLAISFAGNGLSALRTSGSQARATCYCRTGRCATRESLSGVCEISGRLYRLCCR
modifications: Defensin-5
effect on SARS-CoV-2 pseudoparticle infection: could reduce SARS-CoV-2 pseudoparticle infection
